Earlier results as cited in publication PMC3113683 (Biochemistry, 2009).

B1: PEP: mouse homologue of LYP called PEST-enriched phosphatase (protein, UniProt P29352 1-802, looked up)
Tyrosine-protein phosphatase …: MDQREILQQLLKEAQKKKLNSEEFASEFLKLKRQSTKYKADKIYPTTVAQRPKNIKKNRYKDILPYDHSLVELSLLTSDEDSSYINASFIKGVYGPKAYIATQGPLSTTLLDFWRMIWEYRILVIVMACMEFEMGKKKCERYWAEPGETQLQFGPFSISCEAEKKKSDYKIRTLKAKFNNETRIIYQFHYKNWPDHDVPSSIDPILQLIWDMRCYQEDDCVPICIHCSAGCGRTGVICAVDYTWMLLKDGIIPKNFSVFNLIQEMRTQRPSLVQTQEQYELVYSAVLELFKRHMDVISDNHLGREIQAQCSIPEQSLTVEADSCPLDLPKNAMRDVKTTNQHSKQGAEAESTGGSSLGLRTSTMNAEEELVLHSAKSSPSFNCLELNCGCNNKAVITRNGQARASPVVGEPLQKYQSLDFGSMLFGSCPSALPINTADRYHNSKGPVKRTKSTPFELIQQRKTNDLAVGDGFSCLESQLHEHYSLRELQVQRVAHVSSEELNYSLPGACDASCVPRHSPGALRVHLYTSLAEDPYFSSSPPNSADSKMSFDLPEKQDGATSPGALLPASSTTSFFYSNPHDSLVMNTLTSFSPPLNQETAVEAPSRRTDDEIPPPLPERTPESFIVVEEAGEPSPRVTESLPLVVTFGASPECSGTSEMKSHDSVGFTPSKNVKLRSPKSDRHQDGSPPPPLPERTLESFFLADEDCIQAQAVQTSSTSYPETTENSTSSKQTLRTPGKSFTRSKSLKIFRNMKKSVCNSSSPSKPTERVQPKNSSSFLNFGFGNRFSKPKGPRNPPSAWNM
B2: LYP-W620: genetic variant of LYP carrying Trp620 instead of Arg620 in the C-terminal domain (protein, UniProt Q9Y2R2 1-807, looked up, variant R620W)
Tyrosine-protein phosphatase …: MDQREILQKFLDEAQSKKITKEEFANEFLKLKRQSTKYKADKTYPTTVAEKPKNIKKNRYKDILPYDYSRVELSLITSDEDSSYINANFIKGVYGPKAYIATQGPLSTTLLDFWRMIWEYSVLIIVMACMEYEMGKKKCERYWAEPGEMQLEFGPFSVSCEAEKRKSDYIIRTLKVKFNSETRTIYQFHYKNWPDHDVPSSIDPILELIWDVRCYQEDDSVPICIHCSAGCGRTGVICAIDYTWMLLKDGIIPENFSVFSLIREMRTQRPSLVQTQEQYELVYNAVLELFKRQMDVIRDKHSGTESQAKHCIPEKNHTLQADSYSPNLPKSTTKAAKMMNQQRTKMEIKESSSFDFRTSEISAKEELVLHPAKSSTSFDFLELNYSFDKNADTTMKWQTKAFPIVGEPLQKHQSLDLGSLLFEGCSNSKPVNAAGRYFNSKVPITRTKSTPFELIQQRETKEVDSKENFSYLESQPHDSCFVEMQAQKVMHVSSAELNYSLPYDSKHQIRNASNVKHHDSSALGVYSYIPLVENPYFSSWPPSGTSSKMSLDLPEKQDGTVFPSSLLPTSSTSLFSYYNSHDSLSLNSPTNISSLLNQESAVLATAPRIDDEIPPPLPVWTPESFIVVEEAGEFSPNVPKSLSSAVKVKIGTSLEWGGTSEPKKFDDSVILRPSKSVKLRSPKSELHQDRSSPPPPLPERTLESFFLADEDCMQAQSIETYSTSYPDTMENSTSSKQTLKTPGKSFTRSKSLKILRNMKKSICNSCPPNKPAESVQSNNSSSFLNFGFANRFSKPKGPRNPPPTWNI

What was measured:
PEP = conditions: immunoprecipitated full-length PEP vs amino acids 1−290; ref [5]; cited from earlier work
[1] = test system: T cell receptor (TCR) signaling; conditions: cited from earlier work
LYP = conditions: ref [7], [18]; cited from earlier work

Molecule	Catalytic activity vs catalytic domain alone (PEP)	Inhibition of T cell receptor signaling ([1]; T cells, ref [4]-[8])	Phosphatase activity of variant (LYP)	Effect of variant on signaling ([1]; ref [7], [18])
B1	much lower than the activity of the catalytic domain alone	potently inhibit T cell receptor (TCR) signaling	–	–
B2	–	–	increased phosphatase activity	gain-of-function inhibitor of signaling
